Measured values: the supplement of paper PMC10126150
± gives the standard deviation of the averaged measurements.

System: ATP
Experiment: switch fluorescence ratio, 500 uM ATP over buffer (Cy3 cluster intensity, sum of 5 cycles each) (fold (ratio)); higher = stronger signal-on switching upon ATP binding; sequences stand for … in TCGTCGGCAGCGTCAGATGTGTATAAGAGACAGTTTTTTTTTTTTTTTTTTTTTTTTT…TC
Details: aptamer strand: ATP DNA aptamer (quencher-CACCTGGGGGAGTATTGCGGAGGAAGG + anchor), 100 nM annealed; ATP concentration: 500 uM
Method in brief: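 For every switch-domain sequence, the fluorescence ratio is the mean of per-cluster values, each being summed target-cycle Cy3 intensity over summed buffer-cycle Cy3 intensity. Clusters outside 100-1000 RFU were excluded. On a modified Illumina MiSeq flow-cell, the Cy3-labelled switching-strand clusters were annealed to 100 nM quencher-labelled ATP aptamer, imaged in selection buffer and then after 15 min with 500 uM ATP at 22 °C. Five such cycles were run, with NaOH stripping and re-annealing between them.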
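Note: ATP exposure 15 min at 22 °C before imaging.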

| Sequence | switch fluorescence ratio |
| --- | --- |
| AAGGTCTTAG | 0.968 ± 0.039 |
| CTATGTGATT | 1.025 ± 0.0017 |
| AACGTGTATT | 1.1 ± 0.12 |
| TAGTCGGGGA | 1.03 ± 0.059 |
| AATTGGAAGT | 1.01 ± 0.04 |
| TTGACTTTGG | 0.959 ± 0.02 |
| GAGTTGAGGG | 0.973 ± 0.023 |
| ATGGGCTCTT | 1.04 ± 0.049 |
| ATGTTGGTTT | 0.996 ± 0.021 |
| GAGAGGAGGC | 1.07 ± 0.063 |
| GCTTGTTGTT | 0.995 ± 0.017 |
| GTGTTATCGC | 1.011 ± 0.0015 |
| GCGTAAGTTC | 0.981 ± 0.011 |
| TTTTAGTAGT | 1.008 ± 0.01 |
| GGGGGATGG | 0.994 ± 0.016 |
| ACTGGTCAGC | 1 ± 0.029 |
| TCATTGTAAC | 1.06 ± 0.023 |
| CCATAACGGG | 0.97548 ± 0.0008 |
| ATATTGGAAG | 1.011 ± 0.01 |
| TTTTTACAGA | 1.04 ± 0.025 |
| TAATAGAGGG | 1.03 ± 0.027 |
| TAATTATTTT | 1.01 ± 0.03 |
| TTTTTTTAT | 1.014 ± 0.01 |

| Sequence | switch fluorescence ratio |
| --- | --- |
| TAACAGGTAG | 1.05 ± 0.035 |
| ATTCAGTCAT | 0.9901 ± 0.0021 |
| CGTCGCTTTT | 1.022 ± 0.0052 |
| TCCTATTGTG | 1.03 ± 0.042 |
| TACATTAATT | 1.02 ± 0.047 |
| GAAGTGGCTT | 0.9801 ± 0.0014 |
| TCGTGTACTA | 1.02 ± 0.035 |
| GCGTCGGGTG | 1.019 ± 0.008 |
| GAAGTGATGG | 1.135 ± 0.008 |
| GTTAATTATT | 1.06 ± 0.085 |
| TAATAGTGGC | 1.06 ± 0.068 |
| ACTGGGATGT | 1.02 ± 0.0043 |
| AGTTTCTAGT | 0.97 ± 0.043 |
| TCCTGAGTTA | 0.996 ± 0.011 |
| AACAACTCCA | 1.015 ± 0.0036 |
| CACTACGAAT | 1.051 ± 0.007 |
| TACATAGTTC | 1.032 ± 0.0018 |
| TTTTCATGTG | 0.995 ± 0.027 |
| CAGTCCTGTA | 1 ± 0.042 |
| GGCCCTGCGG | 1.02 ± 0.025 |
| CTTTTGGGCG | 1.01 ± 0.056 |
| GATTAGAGGG | 0.9877 ± 0.0081 |
| CGCGACCATT | 0.967 ± 0.051 |

| Sequence | switch fluorescence ratio |
| --- | --- |
| GTTGAAACTT | 0.9976 ± 0.004 |
| CCTGGAGCGG | 1.19 ± 0.037 |
| CGTTAGTAAG | 0.982 ± 0.033 |
| TAGCTCGGGA | 0.9742 ± 0.0097 |
| TATTAGTTTT | 1.02 ± 0.047 |
| AGATAATGGC | 1.11 ± 0.19 |
| GGAATGAGGA | 0.99242 ± 0.0004 |
| TGCAGGGTTG | 0.99591 ± 0.00085 |
| GGCGGCATCT | 1.01 ± 0.023 |
| CGCGTAAAAT | 1.04 ± 0.035 |
| AGTATTTTTG | 1.01 ± 0.032 |
| CGGGTGTAGG | 1.02 ± 0.062 |
| TTTTTCGTGT | 0.975 ± 0.038 |
| GGTACTAGGC | 1.04 ± 0.08 |
| CGATAGAAGT | 1.01 ± 0.016 |
| CCGGGTAATG | 1.27 ± 0.028 |
| TAAGGGGTAA | 0.947 ± 0.019 |
| TGGTGGTGGC | 0.981 ± 0.0072 |
| TATCCAGTGG | 1.01 ± 0.054 |
| CCATATCGTG | 0.988 ± 0.026 |
| GGCGCCGGGC | 1.02 ± 0.022 |
| GTTAGTTTGC | 1.01 ± 0.021 |
| AACTAGTCAA | 1.015 ± 0.0081 |

| Sequence | switch fluorescence ratio |
| --- | --- |
| TTCAGGGGGC | 1.02 ± 0.014 |
| CAAGTCAAGA | 1.0299 ± 0.00028 |
| ACGATCCACG | 1.04 ± 0.045 |
| CAAGAGGGCT | 1.024 ± 0.0043 |
| AGGCAGGTAC | 1.246 ± 0.0051 |
| ATCGCTATGG | 1.125 ± 0.0017 |
| TAGAGCTGTT | 0.969 ± 0.031 |
| TAGTTTGAAC | 1.01 ± 0.05 |
| AAACTTGGGG | 1 ± 0.035 |
| GGGGTCGCTG | 0.965 ± 0.013 |
| GTTTTCGACT | 1.04 ± 0.0095 |
| CAGGGGGCAG | 1.05 ± 0.07 |
| AATGGGCAAG | 1.05 ± 0.015 |
| ATGTTGTATT | 1.01 ± 0.052 |
| GGGTGGCTGG | 0.961 ± 0.049 |
| ACGTATCCGG | 0.9932 ± 0.0067 |
| AAGTCCAAGA | 1.01 ± 0.033 |
| TATGGGGTTG | 1.03 ± 0.12 |
| TGGGACGTTG | 0.995 ± 0.014 |
| TTTGTCCTTT | 1.029 ± 0.0084 |
| GGGGCGCGGA | 1.09 ± 0.12 |
| TCTCCCTTGT | 1.03 ± 0.024 |
| GACAGGTTAG | 0.9809 ± 0.0069 |

| Sequence | switch fluorescence ratio |
| --- | --- |
| TTTGTTGCA | 1.02 ± 0.011 |
| AGCACGTATC | 1.09 ± 0.059 |
| CTAATGTTGT | 1.02 ± 0.028 |
| GGATTAAATT | 0.9996 ± 0.0019 |
| TGTGGGAATT | 1.01 ± 0.049 |
| GCGCGCCGGG | 1.01 ± 0.027 |
| ATACTCATAT | 1.01 ± 0.015 |
| TAATTAATAC | 1.08 ± 0.017 |
| TTAAGCGGAG | 1.0092 ± 0.00077 |
| TTGTTTCTTT | 1 ± 0.017 |
| ATTTTTTACG | 1.02 ± 0.031 |
| TTCGGCACGT | 1.01 ± 0.021 |
| ATGGTGTTGC | 0.964 ± 0.028 |
| CACGTAATTA | 1.25 ± 0.048 |
| TTGGCCCGGG | 1.01 ± 0.059 |
| GGGGGAGGGG | 1 ± 0.043 |
| TTAGGAGGGT | 0.965 ± 0.037 |
| GGCTTTTTGG | 0.99 ± 0.02 |
| AGGGAGGCCG | 0.98 ± 0.11 |
| GGTACGAGGT | 0.972 ± 0.019 |
| AAAATGGTTT | 0.994 ± 0.037 |
| TCGGGATAAG | 1.01 ± 0.018 |
| ATTTTAACGT | 1.01 ± 0.046 |

| Sequence | switch fluorescence ratio |
| --- | --- |
| GGCTTGGGTG | 1.08 ± 0.032 |
| TCGGGGACGT | 1.062 ± 0.0057 |
| GGAGAGGGCT | 1.01 ± 0.024 |
| TGATGCTCGG | 0.996 ± 0.069 |
| CGACACGCTG | 1.05 ± 0.058 |
| ATGGTATAGG | 1.01 ± 0.032 |
| GAGCGGTTAT | 1.33 ± 0.42 |
| TGGGGCGCTA | 1.07 ± 0.11 |
| CGTGTATATG | 1.01 ± 0.029 |
| CTTAACCATT | 0.98 ± 0.014 |
| TATCGGGAGC | 0.986 ± 0.026 |
| TTGGGCCCGC | 1.007 ± 0.0012 |
| ATTACGGAAA | 1.74 ± 0.96 |
| AGCGTTGAGT | 0.985 ± 0.032 |
| TCGGGATAGT | 1.03 ± 0.039 |
| ATAATAGTTG | 1.02 ± 0.018 |
| TTCGTTTCGA | 0.965 ± 0.042 |
| CTAGATTTGA | 1 ± 0.024 |
| TTGTAATGGG | 0.988 ± 0.019 |
| GCTTGTGCTG | 0.978 ± 0.053 |
| AAATCTGCTG | 1 ± 0.061 |
| GAGTTAGGGC | 0.99 ± 0.011 |
| ATGGCAGTGT | 0.993 ± 0.018 |

| Sequence | switch fluorescence ratio |
| --- | --- |
| GGGAGCTGAG | 1.015 ± 0.0055 |
| TGGGCCGGGG | 0.989 ± 0.019 |
| AGGGGCACAA | 1.01 ± 0.024 |
| AGAGGTTGG | 0.996 ± 0.026 |
| CAATTGGCCT | 1.05 ± 0.03 |
| TATGGTATCT | 0.994 ± 0.024 |
| CTGTGTGTTC | 1.01 ± 0.026 |
| AGGGGTAATT | 1.02 ± 0.024 |
| GATATGCTAC | 1.2 ± 0.023 |
| CGCGGGCGGA | 1.021 ± 0.0044 |
| GGAGTCCGTT | 1.02 ± 0.046 |
| TGGTTTCGTG | 1.01 ± 0.023 |
| CGGGAGGAGG | 1 ± 0.028 |
| TTAAAAACTG | 0.992 ± 0.033 |
| CTGACAGATT | 1.11 ± 0.12 |
| GCTTGGGGCA | 0.967 ± 0.024 |
| AAGTAACTC | 1.03 ± 0.027 |
| GCCGGGGCAA | 1.33 ± 0.024 |
| CAGAGGAGGC | 0.987 ± 0.016 |
